Assay results reported in the Immune Epitope Database (IEDB).
One block for each sequence: values may come before it.

Key:
HLA-A*80:01 = experiment: IEDB peptide-MHC binding, purified MHC/direct/fluorescence; filed as Kd, often an IC50 or EC50 that approximates it; ≥ and ≤ were set here for values at or beyond the usual limits of such assays
HLA-A*01:01 = experiment: IEDB peptide-MHC binding, purified MHC/competitive/fluorescence; filed as Kd, often an IC50 or EC50 that approximates it; ≥ and ≤ were set here for values at or beyond the usual limits of such assays
HLA-A*29:02 = experiment: as above
HLA-B*58:01 = experiment: as above
HLA-C*03:03 = experiment: IEDB peptide-MHC binding, purified MHC/direct/fluorescence; filed as Kd, often an IC50 or EC50 that approximates it; ≥ and ≤ were set here for values at or beyond the usual limits of such assays
HLA-C*05:01 = experiment: as above; conditions: source organism: Listeria monocytogenes serotype 4b str. H7858
HLA-C*12:03 = experiment: as above
HLA-B*15:02 = experiment: IEDB peptide-MHC binding, purified MHC/competitive/fluorescence; filed as Kd, often an IC50 or EC50 that approximates it; ≥ and ≤ were set here for values at or beyond the usual limits of such assays
HLA-A*02:01 [1] = experiment: as above
HLA-A*02:03 = experiment: as above
HLA-A*02:11 = experiment: as above
HLA-A*02:12 = experiment: as above
HLA-A*02:16 = experiment: as above
HLA-A*02:19 = experiment: as above
HLA-A*03:01 = experiment: as above
HLA-A*23:01 = experiment: as above
HLA-A*24:03 = experiment: as above
HLA-A*26:01 = experiment: as above
HLA-A*68:02 = experiment: as above
HLA-A*69:01 = experiment: as above
HLA-B*15:01 [2] = experiment: as above
HLA-B*15:17 = experiment: as above
HLA-B*18:01 = experiment: as above
HLA-B*27:03 = experiment: as above
HLA-B*39:01 = experiment: as above
HLA-B*46:01 = experiment: as above
HLA-B*51:01 = experiment: as above
HLA-B*57:01 = experiment: as above
HLA-A*31:01 = experiment: as above; conditions: source organism: Entamoeba histolytica HM-1:IMSS
HLA-C*15:02 = experiment: IEDB peptide-MHC binding, purified MHC/direct/fluorescence; filed as Kd, often an IC50 or EC50 that approximates it; ≥ and ≤ were set here for values at or beyond the usual limits of such assays
HLA-B*07:02 [3] = experiment: IEDB peptide-MHC binding, purified MHC/competitive/fluorescence; filed as Kd, often an IC50 or EC50 that approximates it; ≥ and ≤ were set here for values at or beyond the usual limits of such assays
HLA-C*07:02 = experiment: IEDB peptide-MHC binding, purified MHC/direct/fluorescence; filed as Kd, often an IC50 or EC50 that approximates it; ≥ and ≤ were set here for values at or beyond the usual limits of such assays
HLA-C*14:02 = experiment: as above; conditions: source organism: Homo sapiens
HLA-A*24:02 = experiment: IEDB peptide-MHC binding, purified MHC/competitive/fluorescence; ≥ and ≤ were set here for values at or beyond the usual limits of such assays; conditions: source organism: Zaire ebolavirus
HLA-B*08:01 [4] = experiment: as above; conditions: source organism: Zaire ebolavirus
HLA-B*15:01 [5] = experiment: as above; conditions: source organism: Zaire ebolavirus
HLA-A*02:01 [6] = experiment: as above; conditions: source organism: Zaire ebolavirus
HLA-B*07:02 [7] = experiment: as above; conditions: source organism: Zaire ebolavirus
HLA-B*08:01 [8] = experiment: IEDB peptide-MHC binding, purified MHC/competitive/fluorescence; filed as Kd, often an IC50 or EC50 that approximates it; ≥ and ≤ were set here for values at or beyond the usual limits of such assays; conditions: source organism: Yersinia pestis Nepal516
[9] = source organism: human gammaherpesvirus 4
[10] = source organism: Listeria monocytogenes serotype 4b str. H7858
[11] = source organism: Orthomarburgvirus marburgense
[12] = source organism: Entamoeba histolytica HM-1:IMSS
[13] = source organism: Vibrio cholerae V52
[14] = source organism: Salmonella enterica subsp. enterica serovar Typhi
[15] = source organism: Shigella flexneri 5 str. 8401
[16] = source organism: Escherichia coli O139:H28 str. E24377A
[17] = source organism: Yersinia pestis Nepal516
[18] = source organism: Escherichia coli E22

- Kd (HLA-A*80:01; source organism: Mus musculus): 0.0195 µM
- Kd (HLA-A*01:01; source organism: Mus musculus): ≥ 20 µM
- Kd (HLA-A*29:02; source organism: Mus musculus): 0.0002 µM
Sequence: AFFAERLYY

Sequence: ATVKGMQSY
- Kd (HLA-B*58:01; [9]): 4.38 µM

Sequence: FLMYPNNIF
- Kd (HLA-C*03:03; [10]): 0.015 µM
- Kd (HLA-C*05:01): 0.266 µM
- Kd (HLA-C*12:03; [10]): 0.178 µM
- Kd (HLA-B*15:02; [10]): 0.0057 µM

Sequence: GIADFIIFK
- Kd (HLA-A*02:01 [1]; [11]): ≥ 20 µM
- Kd (HLA-A*02:03; [11]): ≥ 20 µM
- Kd (HLA-A*02:11; [11]): ≥ 20 µM
- Kd (HLA-A*02:12; [11]): ≥ 20 µM
- Kd (HLA-A*02:16; [11]): ≥ 20 µM
- Kd (HLA-A*02:19; [11]): ≥ 20 µM
- Kd (HLA-A*03:01; [11]): 0.188 µM
- Kd (HLA-A*23:01; [11]): ≥ 20 µM
- Kd (HLA-A*24:03; [11]): ≥ 20 µM
- Kd (HLA-A*26:01; [11]): ≥ 20 µM
- Kd (HLA-A*29:02; [11]): ≥ 20 µM
- Kd (HLA-A*68:02; [11]): ≥ 20 µM
- Kd (HLA-A*69:01; [11]): ≥ 20 µM
- Kd (HLA-B*15:01 [2]; [11]): ≥ 20 µM
- Kd (HLA-B*15:17; [11]): ≥ 20 µM
- Kd (HLA-B*18:01; [11]): ≥ 20 µM
- Kd (HLA-B*27:03; [11]): ≥ 20 µM
- Kd (HLA-B*39:01; [11]): ≥ 20 µM
- Kd (HLA-B*46:01; [11]): ≥ 20 µM
- Kd (HLA-B*51:01; [11]): ≥ 20 µM
- Kd (HLA-B*57:01; [11]): ≥ 20 µM

Sequence: HLWNHNQQM
- Kd (HLA-B*15:02; source organism: Venezuelan equine encephalitis virus): 0.0499 µM

Sequence: IGKMNKHYK
- Kd (HLA-A*02:01 [1]; [12]): ≥ 20 µM
- Kd (HLA-A*02:03; [12]): ≥ 20 µM
- Kd (HLA-A*02:11; [12]): ≥ 20 µM
- Kd (HLA-A*02:12; [12]): ≥ 20 µM
- Kd (HLA-A*02:16; [12]): ≥ 20 µM
- Kd (HLA-A*02:19; [12]): ≥ 20 µM
- Kd (HLA-A*03:01; [12]): ≥ 20 µM
- Kd (HLA-A*24:03; [12]): ≥ 20 µM
- Kd (HLA-A*26:01; [12]): ≥ 20 µM
- Kd (HLA-A*29:02; [12]): ≥ 20 µM
- Kd (HLA-A*31:01): 0.16 µM
- Kd (HLA-A*68:02; [12]): ≥ 20 µM
- Kd (HLA-A*69:01; [12]): ≥ 20 µM
- Kd (HLA-B*15:01 [2]; [12]): ≥ 20 µM
- Kd (HLA-B*15:17; [12]): ≥ 20 µM
- Kd (HLA-B*18:01; [12]): ≥ 20 µM
- Kd (HLA-B*27:03; [12]): ≥ 20 µM
- Kd (HLA-B*39:01; [12]): ≥ 20 µM
- Kd (HLA-B*46:01; [12]): ≥ 20 µM
- Kd (HLA-B*51:01; [12]): ≥ 20 µM
- Kd (HLA-B*57:01; [12]): ≥ 20 µM

Sequence: IGYRLGMGK
- Kd (HLA-A*02:01 [1]; [13]): ≥ 20 µM
- Kd (HLA-A*02:03; [13]): ≥ 20 µM
- Kd (HLA-A*02:11; [13]): ≥ 20 µM
- Kd (HLA-A*02:12; [13]): ≥ 20 µM
- Kd (HLA-A*02:16; [13]): ≥ 20 µM
- Kd (HLA-A*02:19; [13]): ≥ 20 µM
- Kd (HLA-A*03:01; [13]): 0.0135 µM
- Kd (HLA-A*23:01; [13]): ≥ 20 µM
- Kd (HLA-A*24:03; [13]): ≥ 20 µM
- Kd (HLA-A*26:01; [13]): ≥ 20 µM
- Kd (HLA-A*29:02; [13]): ≥ 20 µM
- Kd (HLA-A*68:02; [13]): ≥ 20 µM
- Kd (HLA-A*69:01; [13]): ≥ 20 µM
- Kd (HLA-B*15:01 [2]; [13]): ≥ 20 µM
- Kd (HLA-B*15:17; [13]): ≥ 20 µM
- Kd (HLA-B*18:01; [13]): ≥ 20 µM
- Kd (HLA-B*27:03; [13]): ≥ 20 µM
- Kd (HLA-B*39:01; [13]): ≥ 20 µM
- Kd (HLA-B*46:01; [13]): ≥ 20 µM
- Kd (HLA-B*51:01; [13]): ≥ 20 µM
- Kd (HLA-B*57:01; [13]): ≥ 20 µM

Sequence: ILLARLFLY
- Kd (HLA-A*80:01; [9]): 0.0033 µM
- Kd (HLA-A*03:01; [9]): 2.06 µM

Sequence: ITLKVFAGY
- Kd (HLA-A*03:01; [14]): 2.69 µM
- Kd (HLA-A*26:01; [14]): 0.287 µM
- Kd (HLA-B*58:01; [14]): 0.0116 µM

Sequence: KVHLTPAQL
- Kd (HLA-C*15:02; [15]): ≥ 20 µM
- Kd (HLA-B*07:02 [3]; [15]): 0.154 µM

- Kd (HLA-B*07:02 [3]; [16]): 0.0974 µM
- Kd (HLA-B*51:01; [16]): ≥ 20 µM
Sequence: LPRDASQIT

- Kd (HLA-C*07:02; source organism: Homo sapiens): 0.238 µM
- Kd (HLA-C*14:02): 0.246 µM
- Kd (HLA-C*15:02; source organism: Homo sapiens): ≥ 20 µM
- Kd (HLA-A*01:01; source organism: Homo sapiens): 1.08 µM
- Kd (HLA-A*29:02; source organism: Homo sapiens): ≤ 0.0001 µM
Sequence: MLYPRVWPY

Sequence: MMQGTPYVY
- Kd (HLA-B*15:02; source organism: Vibrio antiquarius): 0.0059 µM

Sequence: PVMNHKNKF
- IC50 (HLA-A*24:02): 0.106 µM
- IC50 (HLA-B*08:01 [4]): 11 µM
- IC50 (HLA-B*15:01 [5]): ≥ 364 µM

Sequence: RTAKVKNEV
- IC50 (HLA-A*02:01 [6]): 57.2 µM
- IC50 (HLA-A*24:02): ≥ 75.3 µM
- IC50 (HLA-B*07:02 [7]): 10.3 µM
- IC50 (HLA-B*08:01 [4]): 56.8 µM

Sequence: SDMDYHKIL
- IC50 (HLA-A*02:01 [6]): ≥ 241 µM
- IC50 (HLA-A*24:02): ≥ 145 µM
- IC50 (HLA-B*08:01 [4]): ≥ 177 µM

Sequence: SLFVRSAGQ
- Kd (HLA-B*15:02; source organism: Burkholderia mallei JHU): ≥ 20 µM

Sequence: VVEKQSGLY
- Kd (HLA-A*80:01; source organism: West Nile virus): 0.0008 µM

Sequence: YIYTRSFQM
- Kd (HLA-C*07:02; [17]): 0.163 µM
- Kd (HLA-A*02:01 [1]; [17]): 0.0004 µM
- Kd (HLA-A*26:01; [17]): 0.593 µM
- Kd (HLA-B*08:01 [8]): 0.0487 µM
- Kd (HLA-B*15:01 [2]; [17]): 0.351 µM

- Kd (HLA-C*03:03; source organism: Homo sapiens): 0.371 µM
- Kd (HLA-C*12:03; source organism: Homo sapiens): 0.088 µM
- Kd (HLA-C*15:02; source organism: Homo sapiens): 0.372 µM
Sequence: YMNGTMSQV

- Kd (HLA-A*02:01 [1]; [18]): 0.0004 µM
- Kd (HLA-A*02:11; [18]): ≥ 20 µM
- Kd (HLA-A*02:12; [18]): ≥ 20 µM
- Kd (HLA-A*02:16; [18]): ≤ 0.0001 µM
- Kd (HLA-A*02:19; [18]): ≥ 20 µM
- Kd (HLA-A*03:01; [18]): ≥ 20 µM
- Kd (HLA-A*23:01; [18]): ≥ 20 µM
- Kd (HLA-A*24:03; [18]): ≥ 20 µM
- Kd (HLA-A*26:01; [18]): ≥ 20 µM
- Kd (HLA-A*29:02; [18]): ≥ 20 µM
- Kd (HLA-A*69:01; [18]): ≥ 20 µM
- Kd (HLA-B*15:01 [2]; [18]): ≥ 20 µM
- Kd (HLA-B*15:17; [18]): ≥ 20 µM
- Kd (HLA-B*18:01; [18]): ≥ 20 µM
- Kd (HLA-B*27:03; [18]): ≥ 20 µM
- Kd (HLA-B*46:01; [18]): ≥ 20 µM
- Kd (HLA-B*51:01; [18]): ≥ 20 µM
- Kd (HLA-B*57:01; [18]): ≥ 20 µM
Sequence: YQTYVSPGA
